# Reference: patent US11472855, “RNA-binding protein” (Panitch Schwarze Belisario & Nadel LLP)
# Changes are numbered by the printed parent chain.
# T1: hPUF_MT(R5:A_13R)(R5:A_13Y)2(R6:U_13Y)3
# T1 chain: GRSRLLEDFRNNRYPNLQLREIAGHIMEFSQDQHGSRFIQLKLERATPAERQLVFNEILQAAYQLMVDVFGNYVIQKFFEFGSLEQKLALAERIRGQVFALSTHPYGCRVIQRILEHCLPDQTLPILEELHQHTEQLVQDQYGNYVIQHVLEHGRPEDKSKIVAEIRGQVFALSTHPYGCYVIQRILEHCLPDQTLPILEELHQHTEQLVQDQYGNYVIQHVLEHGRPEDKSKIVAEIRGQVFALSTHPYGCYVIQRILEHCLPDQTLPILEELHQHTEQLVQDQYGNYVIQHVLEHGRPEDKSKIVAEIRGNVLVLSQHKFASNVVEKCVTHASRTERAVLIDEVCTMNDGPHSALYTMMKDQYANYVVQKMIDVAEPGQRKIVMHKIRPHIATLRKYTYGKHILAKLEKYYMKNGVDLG
# T2: hPUF_MT(1-2-5-6-5-6-5-6-7-8) / (R5:A_13R)3(R6:U_13Y)3
# T2 chain: T1 chain with Y181R, Y253R
# T3: hPUF_MT(R3→R5, R4→R6)
# T3 chain: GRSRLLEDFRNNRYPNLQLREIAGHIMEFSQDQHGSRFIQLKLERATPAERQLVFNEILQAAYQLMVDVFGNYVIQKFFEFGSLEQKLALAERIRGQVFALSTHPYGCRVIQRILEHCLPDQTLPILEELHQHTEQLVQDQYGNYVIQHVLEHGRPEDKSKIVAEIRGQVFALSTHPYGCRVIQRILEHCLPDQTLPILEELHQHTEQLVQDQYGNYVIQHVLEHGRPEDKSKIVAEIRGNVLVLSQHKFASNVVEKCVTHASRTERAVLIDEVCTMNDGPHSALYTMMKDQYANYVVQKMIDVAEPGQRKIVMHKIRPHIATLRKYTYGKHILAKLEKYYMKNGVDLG
# T4: hPUF_MT(R8_N12S,Q16R, R3→R5, R4→R6) (R8 repeat N12S,Q16R)
# T4 chain: T3 chain with N295S, Q299R
# Legend:
# Settings in all cases: label: Alexa680 at 5' and 3'
# [1] = target: T1, hPUF_MT(R5:A_13R)(R5:A_13Y)2(R6:U_13Y)3; assay: EMSA; equivalent
# [2] = target: T2, hPUF_MT(1-2-5-6-5-6-5-6-7-8) / …; assay: EMSA; Example 2-5 reported comparable to WT
# hPUF_MT(R3→R5, R4→R6) = target: T3, hPUF_MT(R3→R5, R4→R6); assay: EMSA; binds U exclusively at R8 position
# [3] = target: T4, hPUF_MT(R8_N12S,Q16R, R3→R5, R4→R6); assay: EMSA; C>>G
Binder,binding signal [1],binding signal [2],"binding result (hPUF_MT(R3→R5, R4→R6))",binding result [3]
CCAGAAUUGUAUAUAUAUUCG (ssRNA) [OTS-1844],~1 fold of 13R protein,~10 fold of WT,–,–
CCAGAAUCGUAUAUAUUCG (ssRNA) [OTS-2035],–,–,no binding,binds
